The values that follow are results of earlier work, collected in paper PMC12580572.

For series [1], the target named is GluK2 (Rattus norvegicus) (UniProt P42260).
In series [2] the target is GluK5 (Rattus norvegicus) (UniProt Q63273).
UniProt Q63273, sequence (Q63273 15-979): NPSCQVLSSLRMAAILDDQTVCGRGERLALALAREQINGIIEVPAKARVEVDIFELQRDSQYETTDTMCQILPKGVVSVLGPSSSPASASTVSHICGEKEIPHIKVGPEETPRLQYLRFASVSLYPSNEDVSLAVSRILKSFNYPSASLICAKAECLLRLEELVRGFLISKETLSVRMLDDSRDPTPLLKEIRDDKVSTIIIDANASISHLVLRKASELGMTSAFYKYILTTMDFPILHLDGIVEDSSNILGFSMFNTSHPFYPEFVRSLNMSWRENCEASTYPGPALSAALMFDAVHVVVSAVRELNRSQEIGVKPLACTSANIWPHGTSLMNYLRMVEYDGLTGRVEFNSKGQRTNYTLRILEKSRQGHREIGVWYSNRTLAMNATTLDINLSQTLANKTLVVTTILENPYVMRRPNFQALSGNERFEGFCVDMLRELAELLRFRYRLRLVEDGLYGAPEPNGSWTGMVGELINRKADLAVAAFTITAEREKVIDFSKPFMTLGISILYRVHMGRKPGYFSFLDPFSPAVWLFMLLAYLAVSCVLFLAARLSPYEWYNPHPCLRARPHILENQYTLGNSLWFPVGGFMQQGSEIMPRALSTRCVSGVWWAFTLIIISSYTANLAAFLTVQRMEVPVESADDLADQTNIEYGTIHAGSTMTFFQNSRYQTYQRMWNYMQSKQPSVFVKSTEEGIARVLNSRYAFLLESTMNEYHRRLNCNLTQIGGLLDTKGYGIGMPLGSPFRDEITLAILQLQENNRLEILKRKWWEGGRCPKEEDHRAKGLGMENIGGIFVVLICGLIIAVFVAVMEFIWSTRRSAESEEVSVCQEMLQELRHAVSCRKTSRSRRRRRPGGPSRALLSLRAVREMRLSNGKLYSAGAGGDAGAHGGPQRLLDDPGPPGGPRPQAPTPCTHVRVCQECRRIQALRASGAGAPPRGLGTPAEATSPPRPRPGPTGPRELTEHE

As for GluK2 (from UniProt P42260), the dissociation constant (Kd) (as a rule, a measure of binding affinity in units of concentration) was 350 nM in series [1] and 77 nM in series [2].
